This series deals with the molecule itself. Briefly: cross-linking; interprotein disulfide formed in transfected HEK-293 cells (vehicle, NCA 100 µmol/L 30 min or AS 500 µmol/L 15 min); homogenates in non-reducing Laemmli buffer with 100 mmol/L maleimide, SDS-PAGE, western blot for PKGIα; 150 kDa band lost with 2-mercaptoethanol. In general terms: In western blotting, separated proteins are transferred to a membrane and probed.

Results on 1 protein are retold here after publication PMC5577323, “Oxidant sensor in the cGMP-binding pocket of PKGIα regulates nitroxyl-mediated kinase activity” (Scientific Reports, 2017).

B1: cGMP-dependent protein kinase I-alpha (PKGIα), human, wildtype (enzyme, UniProt Q13976 1-671, looked up)
chain: MSELEEDFAKILMLKEERIKELEKRLSEKEEEIQELKRKLHKCQSVLPVPSTHIGPRTTRAQGISAEPQTYRSFHDLRQAFRKFTKSERSKDLIKEAILDNDFMKNLELSQIQEIVDCMYPVEYGKDSCIIKEGDVGSLVYVMEDGKVEVTKEGVKLCTMGPGKVFGELAILYNCTRTATVKTLVNVKLWAIDRQCFQTIMMRTGLIKHTEYMEFLKSVPTFQSLPEEILSKLADVLEETHYENGEYIIRQGARGDTFFIISKGTVNVTREDSPSEDPVFLRTLGKGDWFGEKALQGEDVRTANVIAAEAVTCLVIDRDSFKHLIGGLDDVSNKAYEDAEAKAKYEAEAAFFANLKLSDFNIIDTLGVGGFGRVELVQLKSEESKTFAMKILKKRHIVDTRQQEHIRSEKQIMQGAHSDFIVRLYRTFKDSKYLYMLMEACLGGELWTILRDRGSFEDSTTRFYTACVVEAFAYLHSKGIIYRDLKPENLILDHRGYAKLVDFGFAKKIGFGKKTWTFCGTPEYVAPEIILNKGHDISADYWSLGILMYELLTGSPPFSGPDPMKTYNIILRGIDMIEFPKKIAKNAANLIKKLCRDNPSERLGNLKNGVKDIQKHKWFEGFNWEGLRKGTLTPPIIPSVASPTDTSNFDSFPEDNDEPPPDDNSGWDIDF
modifications: interprotein disulfide at Cys42 (between the two subunits); intradisulfide Cys117-Cys195 after HNO donors
notes: written here as one chain because the row is of the protein with itself; also called WT PKGIα; PKGIα WT; source: HEK-293, transfected (pcDNA3), in cell homogenate
The stoichiometry N is the number of molecules, sites or subunits per partner or assembly. As to B1, the “stoichiometry N” value amounted to 2.
